These results are taken from publication PMC3630801 (Biochemistry, 2013).

Series [1] addresses T1, BtuB, Escherichia coli vitamin B12 transporter (wild type) (Escherichia coli, UniProt P06129 21-614).
T1 sequence (looked up): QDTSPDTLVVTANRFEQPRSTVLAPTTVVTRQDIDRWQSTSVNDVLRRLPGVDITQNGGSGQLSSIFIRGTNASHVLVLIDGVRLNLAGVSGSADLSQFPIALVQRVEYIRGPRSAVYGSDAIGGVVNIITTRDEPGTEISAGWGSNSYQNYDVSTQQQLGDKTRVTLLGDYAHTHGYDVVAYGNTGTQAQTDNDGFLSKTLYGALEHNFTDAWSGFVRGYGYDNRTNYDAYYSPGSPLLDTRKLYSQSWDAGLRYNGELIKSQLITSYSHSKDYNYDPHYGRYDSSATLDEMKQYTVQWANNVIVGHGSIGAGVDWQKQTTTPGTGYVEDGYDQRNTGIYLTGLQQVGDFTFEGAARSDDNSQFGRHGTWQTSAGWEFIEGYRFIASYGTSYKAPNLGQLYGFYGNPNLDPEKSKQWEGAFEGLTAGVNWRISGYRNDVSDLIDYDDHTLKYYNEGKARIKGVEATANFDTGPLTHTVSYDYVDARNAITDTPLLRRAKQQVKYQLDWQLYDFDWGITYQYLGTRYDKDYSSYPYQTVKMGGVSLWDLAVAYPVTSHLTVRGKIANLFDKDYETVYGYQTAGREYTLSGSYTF
The experiment in a line: fluorescence polarisation. In general terms: Fluorescence polarisation rises when a labelled molecule tumbles more slowly, as on binding a larger partner.

For series [2], the target named is T2, FhuA, Escherichia coli ferrichrome transporter (Escherichia coli, UniProt P06971 34-747).
T2 sequence (looked up): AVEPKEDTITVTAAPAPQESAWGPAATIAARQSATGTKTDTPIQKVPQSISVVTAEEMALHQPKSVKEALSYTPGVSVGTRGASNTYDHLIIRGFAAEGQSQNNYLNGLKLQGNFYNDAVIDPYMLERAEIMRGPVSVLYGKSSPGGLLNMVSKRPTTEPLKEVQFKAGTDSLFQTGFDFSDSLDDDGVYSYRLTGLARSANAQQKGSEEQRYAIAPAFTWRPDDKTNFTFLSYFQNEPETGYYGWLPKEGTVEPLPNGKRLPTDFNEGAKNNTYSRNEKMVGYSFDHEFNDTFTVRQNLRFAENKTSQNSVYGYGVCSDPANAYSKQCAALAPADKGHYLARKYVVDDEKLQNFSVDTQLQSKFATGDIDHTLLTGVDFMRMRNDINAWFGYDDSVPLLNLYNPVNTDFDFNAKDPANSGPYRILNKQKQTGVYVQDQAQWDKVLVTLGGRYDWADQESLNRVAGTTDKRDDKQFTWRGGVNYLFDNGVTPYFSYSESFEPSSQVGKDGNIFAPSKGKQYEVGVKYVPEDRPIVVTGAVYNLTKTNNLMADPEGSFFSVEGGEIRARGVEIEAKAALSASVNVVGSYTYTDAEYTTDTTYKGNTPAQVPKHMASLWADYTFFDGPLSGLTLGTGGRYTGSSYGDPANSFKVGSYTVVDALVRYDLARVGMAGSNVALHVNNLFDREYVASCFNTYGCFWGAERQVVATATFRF
The experiment in a line: fluorescence polarisation.

Series [3] deals with T1, BtuB, Escherichia coli vitamin B12 …. The experiment in a line: fluorescence polarisation. The source holds these as a separate data set.
In series [4] the target is T2, FhuA, Escherichia coli ferrichrome …. The experiment in a line: fluorescence polarisation. This is another data set of the same source.
The series “DEER” deals with the molecule itself. The experiment in a line: DEER.
The target of series [5] is T1, BtuB, Escherichia coli vitamin B12 …. The series is described as follows: continuous-wave EPR lineshape.
Series [6] has as its target T2, FhuA, Escherichia coli ferrichrome …. The series is described as follows: DEER.
The target in series [7] is T3, FecA, Escherichia coli ferric citrate transporter (Escherichia coli, UniProt P13036 34-774).
T3 sequence (looked up): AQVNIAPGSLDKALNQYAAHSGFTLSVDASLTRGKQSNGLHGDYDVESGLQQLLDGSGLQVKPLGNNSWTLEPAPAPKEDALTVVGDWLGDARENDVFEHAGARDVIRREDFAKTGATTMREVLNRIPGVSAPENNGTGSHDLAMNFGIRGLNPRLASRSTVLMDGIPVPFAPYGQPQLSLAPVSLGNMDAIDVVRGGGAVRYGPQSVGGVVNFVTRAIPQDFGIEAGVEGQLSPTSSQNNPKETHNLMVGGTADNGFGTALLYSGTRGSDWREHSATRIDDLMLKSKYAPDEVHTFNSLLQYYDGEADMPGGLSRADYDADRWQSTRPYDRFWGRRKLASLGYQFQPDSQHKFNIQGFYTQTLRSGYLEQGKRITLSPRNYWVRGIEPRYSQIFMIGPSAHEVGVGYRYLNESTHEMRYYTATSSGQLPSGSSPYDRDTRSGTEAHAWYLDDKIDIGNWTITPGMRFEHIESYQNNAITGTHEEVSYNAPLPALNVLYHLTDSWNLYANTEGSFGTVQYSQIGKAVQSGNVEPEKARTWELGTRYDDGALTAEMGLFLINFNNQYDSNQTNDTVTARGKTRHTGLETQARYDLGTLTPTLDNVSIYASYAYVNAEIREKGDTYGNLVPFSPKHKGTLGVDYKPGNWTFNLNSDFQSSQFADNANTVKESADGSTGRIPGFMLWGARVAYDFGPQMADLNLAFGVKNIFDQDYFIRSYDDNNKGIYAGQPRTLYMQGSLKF
The series is described as follows: DEER.

Read-outs that look alike come from different tables or passages of the source.

B1: TonB_(ΔTMD) L194C labeled with BODIPY FL (domain or fragment)
chain: not shown
modifications: BODIPY FL N-(2-aminoethyl)maleimide on Cys194 (labeling efficiency ~75%)
The Kd is the free concentration of one partner at which half of the binding sites on the other are occupied at equilibrium, for simple one-to-one binding. Lower therefore signals tighter binding. As for B1, the dissociation constant Kd in series [1] turned out to be 0.061 µM; in series [2], 0.064 µM; in series [3], 0.026 µM; in series [4], 0.038 µM.

B2: TonB_(ΔTMD) I224R1 (spin-labeled) (domain or fragment)
chain: not shown
modifications: R1 spin-label side chain (cysteine derivatized with MTSL) at 224
On to B2, for which the binding result (in the series “DEER”; in series [5]) was “binds” throughout.

B3: TonB_(ΔTMD) E203R1 (spin-labeled) (domain or fragment)
chain: not shown
modifications: R1 spin-label side chain (cysteine derivatized with MTSL) at 203
For the molecule B3, the binding result (in series [6]; in series [7]; in “DEER”; in series [5]) was “binds” each time.

B4: TonB_(ΔTMD) R187R1 (spin-labeled) (domain or fragment)
chain: not shown
modifications: R1 spin-label side chain (cysteine derivatized with MTSL) at 187
With B4, the binding result in series [5] was “binds”.
